Assay results as given in publication PMC10665462.

Molecular target: BTN3A1 full intracellular domain (human)
Assay: ITC; nanoITC; 300 μM BTN2A1 ID271 titrated into a mixture of 60 μM BTN3A1 BFI and 120 μM 4-M-HMBPP; independent fit (NanoAnalyze)

- KD with 4-M-HMBPP: 190 µM
- N with 4-M-HMBPP: 0.08
- dH with 4-M-HMBPP: -23.9 kcal/mol
Substance: BTN2A1 intracellular domain (domain or fragment)
